Patent publication US20190309066A1 (ARCH ONCOLOGY, published 2019)

Molecular target: T1, human CD47 expressed on cells (human, UniProt Q08722 19-292)
T1 construct: also called hCD47; integrin-associated protein
Test: flow cytometry on freshly isolated human RBCs, FITC-labelled donkey anti-human antibody, MFI
Description: FIG. 7. Binding of VLX9 Humanized mAbs to Human RBCs. […] RBCs were incubated for 60 minutes at 37° C. with various concentrations of VLX9 mAbs, washed and incubated for 1 hr with FITC-labelled donkey anti-human antibody. Cells were washed and antibody binding measured using flow cytometry.
Binding activities of chimeric and humanized VLX4, VLX8, and VLX9 mAbs to human CD47 on hRBCs were also determined using flow cytometry.

T1 sequence (Q08722 other isoform, or with tags, fused parts or gaps limits assumed): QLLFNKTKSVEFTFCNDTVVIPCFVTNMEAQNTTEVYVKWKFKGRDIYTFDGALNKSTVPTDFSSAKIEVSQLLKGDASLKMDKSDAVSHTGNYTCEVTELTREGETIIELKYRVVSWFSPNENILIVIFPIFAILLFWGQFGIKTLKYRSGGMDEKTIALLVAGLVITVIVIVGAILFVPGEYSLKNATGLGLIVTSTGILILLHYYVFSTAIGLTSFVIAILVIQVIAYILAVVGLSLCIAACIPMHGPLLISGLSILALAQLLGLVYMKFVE

B1: VLX9 IgG2 (xi) (antibody)
heavy: QVQLQQFGAELAKPGASVQMSCKASGYTFTNYWIHWVKQRPGQGLEWIGYTDPRTDYTEYNQKFKDKATLAADRSSSTAYMRLSSLTSEDSAVYYCAGGGRVGLGYWGHGSSVTVSSASTKGPSVFPLAPCSRSTSESTAALGCLVKDYFPEPVTVSWNSGALTSGVHTFPAVLQSSGLYSLSSVVTVPSSNFGTQTYTCNVDHKPSNTKVDKTVERKCCVECPPCPAPPVAGPSVFLFPPKPKDTLMISRTPEVTCVVVDVSHEDPEVQFNWYVDGVEVHNAKTKPREEQFNSTFRVVSVLTVVHQDWLNGKEYKCKVSNKGLPAPIEKTISKTKGQPREPQVYTLPPSREEMTKNQVSLTCLVKGFYPSDIAVEWESNGQPENNYKTTPPMLDSDGSFFLYSKLTVDKSRWQQGNVFSCSVMHEALHNHYTQKSLSLSPGK
light: DVFMTQTPLSLPVSLGDQASISCRSSQNIVQSNGNTYLEWYLQKPGQSPKLLIYKVFHRFSGVPDRFSGSGSGTDFTLKISRVEAEDLGVYYCFQGSHVPWTFGGGTKVEIKRTVAAPSVFIFPPSDEQLKSGTASVVCLLNNFYPREAKVQWKVDNALQSGNSQESVTEQDSKDSTYSLSSTLTLSKADYEKHKVYACEVTHQGLSSPVTKSFNRGEC
notes: murine-human chimera; also called VLX9 IgG2 chimera (xi)
EC50 (read off the curve): ~0.5 nM
